{"source": "patent US10800847", "key": {"[1]": {"biological_target": "Albumin on negative control beads (serum albumin, HSA/BSA) (human or bovine)", "assay": "Luminex, iBead MFI against regular bead MFI, 1:4"}, "[2]": {"biological_target": "HLA-A*0301 (A3) on single antigen beads (human) (UniProt P04439)", "assay": "Luminex single antigen beads, regular beads (#7), 1:4"}, "[3]": {"biological_target": "Albumin on negative control beads (serum albumin, HSA/BSA) (human or bovine)", "assay": "Luminex single antigen beads, regular beads (#7), 1:4"}, "[4]": {"biological_target": "HLA-B*3701 (B37) single antigen on Luminex beads (human)", "assay": "Luminex single antigen, regular beads (#7), IVIg 1:4"}, "[5]": {"biological_target": "HLA-B*4601 (B46) single antigen on Luminex beads (human)", "assay": "Luminex single antigen, regular beads (#7), IVIg 1:4"}, "[6]": {"biological_target": "HLA-B*4402 (B44) single antigen on Luminex beads (human)", "assay": "Luminex single antigen, regular beads (#7), IVIg 1:4"}, "[7]": {"biological_target": "HLA-B*4006 (B61) single antigen on Luminex beads (human)", "assay": "Luminex single antigen, regular beads (#7), IVIg 1:4"}, "[8]": {"biological_target": "HLA-B*4101 (B41) single antigen on Luminex beads (human)", "assay": "Luminex single antigen, regular beads (#7), IVIg 1:4"}, "[9]": {"biological_target": "HLA-B*4403 (B44) single antigen on Luminex beads (human)", "assay": "Luminex single antigen, regular beads (#7), IVIg 1:4"}, "[10]": {"biological_target": "HLA-B*3801 (B38) single antigen on Luminex beads (human)", "assay": "Luminex single antigen, regular beads (#7), IVIg 1:4"}, "[11]": {"biological_target": "HLA-B*3501 (B35) single antigen on Luminex beads (human)", "assay": "Luminex single antigen, regular beads (#7), IVIg 1:4"}, "[12]": {"biological_target": "HLA-B*2708 (B27) single antigen on Luminex beads (human)", "assay": "Luminex single antigen, regular beads (#7), IVIg 1:4"}, "[13]": {"biological_target": "HLA-B*4701 (B47) single antigen on Luminex beads (human)", "assay": "Luminex single antigen, regular beads (#7), IVIg 1:4"}, "[14]": {"biological_target": "HLA-B*4501 (B45) single antigen on Luminex beads (human)", "assay": "Luminex single antigen, regular beads (#7), IVIg 1:4"}, "[15]": {"biological_target": "HLA-B*4001 (B60) single antigen on Luminex beads (human)", "assay": "Luminex single antigen, regular beads (#7), IVIg 1:4"}, "[16]": {"biological_target": "HLA-B*4201 (B42) single antigen on Luminex beads (human)", "assay": "Luminex single antigen, regular beads (#7), IVIg 1:4"}, "[17]": {"biological_target": "HLA-B*3901 (B39) single antigen on Luminex beads (human)", "assay": "Luminex single antigen, regular beads (#7), IVIg 1:4"}, "[18]": {"biological_target": "HLA-B*3701 (B37) single antigen on Luminex beads (human)", "assay": "Luminex single antigen, iBead vs regular bead, IVIg 1:4"}, "[19]": {"biological_target": "HLA-B*4601 (B46) single antigen on Luminex beads (human)", "assay": "Luminex single antigen, iBead vs regular bead, IVIg 1:4"}, "[20]": {"biological_target": "HLA-B*4402 (B44) single antigen on Luminex beads (human)", "assay": "Luminex single antigen, iBead vs regular bead, IVIg 1:4"}, "[21]": {"biological_target": "HLA-B*4006 (B61) single antigen on Luminex beads (human)", "assay": "Luminex single antigen, iBead vs regular bead, IVIg 1:4"}, "[22]": {"biological_target": "HLA-B*4101 (B41) single antigen on Luminex beads (human)", "assay": "Luminex single antigen, iBead vs regular bead, IVIg 1:4"}, "[23]": {"biological_target": "HLA-B*4002 (B61) single antigen on Luminex beads (human)", "assay": "Luminex single antigen, iBead vs regular bead, IVIg 1:4"}, "[24]": {"biological_target": "HLA-B*4403 (B44) single antigen on Luminex beads (human)", "assay": "Luminex single antigen, iBead vs regular bead, IVIg 1:4"}, "[25]": {"biological_target": "HLA-B*3801 (B38) single antigen on Luminex beads (human)", "assay": "Luminex single antigen, iBead vs regular bead, IVIg 1:4"}, "[26]": {"biological_target": "HLA-B*3501 (B35) single antigen on Luminex beads (human)", "assay": "Luminex single antigen, iBead vs regular bead, IVIg 1:4"}, "[27]": {"biological_target": "HLA-B*2708 (B27) single antigen on Luminex beads (human)", "assay": "Luminex single antigen, iBead vs regular bead, IVIg 1:4"}, "[28]": {"biological_target": "HLA-B*4701 (B47) single antigen on Luminex beads (human)", "assay": "Luminex single antigen, iBead vs regular bead, IVIg 1:4"}, "[29]": {"biological_target": "HLA-B*4001 (B60) single antigen on Luminex beads (human)", "assay": "Luminex single antigen, iBead vs regular bead, IVIg 1:4"}, "[30]": {"biological_target": "HLA-B*3901 (B39) single antigen on Luminex beads (human)", "assay": "Luminex single antigen, iBead vs regular bead, IVIg 1:4"}, "[31]": {"biological_target": "HLA-B*2705 (B27) single antigen on Luminex beads (human)", "assay": "Luminex single antigen, iBead vs regular bead, IVIg 1:4"}, "[32]": {"biological_target": "HLA-B*3701 (B37) single antigen on Luminex beads (human)", "assay": "Luminex single antigen, iBeads (#6), IVIg 1:4"}, "[33]": {"biological_target": "HLA-B*4601 (B46) single antigen on Luminex beads (human)", "assay": "Luminex single antigen, iBeads (#6), IVIg 1:4"}, "[34]": {"biological_target": "HLA-B*4402 (B44) single antigen on Luminex beads (human)", "assay": "Luminex single antigen, iBeads (#6), IVIg 1:4"}, "[35]": {"biological_target": "HLA-B*4006 (B61) single antigen on Luminex beads (human)", "assay": "Luminex single antigen, iBeads (#6), IVIg 1:4"}, "[36]": {"biological_target": "HLA-B*4101 (B41) single antigen on Luminex beads (human)", "assay": "Luminex single antigen, iBeads (#6), IVIg 1:4"}, "[37]": {"biological_target": "HLA-B*4002 (B61) single antigen on Luminex beads (human)", "assay": "Luminex single antigen, iBeads (#6), IVIg 1:4"}, "[38]": {"biological_target": "HLA-B*4403 (B44) single antigen on Luminex beads (human)", "assay": "Luminex single antigen, iBeads (#6), IVIg 1:4"}, "[39]": {"biological_target": "HLA-B*3801 (B38) single antigen on Luminex beads (human)", "assay": "Luminex single antigen, iBeads (#6), IVIg 1:4"}, "[40]": {"biological_target": "HLA-B*3501 (B35) single antigen on Luminex beads (human)", "assay": "Luminex single antigen, iBeads (#6), IVIg 1:4"}, "[41]": {"biological_target": "HLA-B*2708 (B27) single antigen on Luminex beads (human)", "assay": "Luminex single antigen, iBeads (#6), IVIg 1:4"}, "[42]": {"biological_target": "HLA-B*4701 (B47) single antigen on Luminex beads (human)", "assay": "Luminex single antigen, iBeads (#6), IVIg 1:4"}, "[43]": {"biological_target": "HLA-B*4501 (B45) single antigen on Luminex beads (human)", "assay": "Luminex single antigen, iBeads (#6), IVIg 1:4"}, "[44]": {"biological_target": "HLA-B*4001 (B60) single antigen on Luminex beads (human)", "assay": "Luminex single antigen, iBeads (#6), IVIg 1:4"}, "[45]": {"biological_target": "HLA-B*4201 (B42) single antigen on Luminex beads (human)", "assay": "Luminex single antigen, iBeads (#6), IVIg 1:4"}, "[46]": {"biological_target": "HLA-B*3901 (B39) single antigen on Luminex beads (human)", "assay": "Luminex single antigen, iBeads (#6), IVIg 1:4"}, "[47]": {"biological_target": "HLA-B*2705 (B27) single antigen on Luminex beads (human)", "assay": "Luminex single antigen, iBeads (#6), IVIg 1:4"}}, "data": [{"substance": "Sandoglobulin (IVIg, Novartis, Basel, Switzerland) (antibody)", "values": [{"measurement": "Difference % (iBead against regular bead)", "setting": "[1]", "result": -44, "unit": "%"}, {"measurement": "MFI", "setting": "[2]", "result": 2, "unit": "MFI"}, {"measurement": "MFI", "setting": "[3]", "result": 1200, "unit": "MFI"}, {"measurement": "MFI", "setting": "[4]", "result": 1100, "unit": "MFI"}, {"measurement": "MFI", "setting": "[5]", "result": 537, "unit": "MFI"}, {"measurement": "MFI", "setting": "[6]", "result": 683, "unit": "MFI"}, {"measurement": "MFI", "setting": "[7]", "result": 765, "unit": "MFI"}, {"measurement": "MFI", "setting": "[8]", "result": 32, "unit": "MFI"}, {"measurement": "MFI", "setting": "[9]", "result": 284, "unit": "MFI"}, {"measurement": "MFI", "setting": "[10]", "result": 254, "unit": "MFI"}, {"measurement": "MFI", "setting": "[11]", "result": 243, "unit": "MFI"}, {"measurement": "MFI", "setting": "[12]", "result": 13, "unit": "MFI"}, {"measurement": "MFI", "setting": "[13]", "result": 355, "unit": "MFI"}, {"measurement": "MFI", "setting": "[14]", "result": 272, "unit": "MFI"}, {"measurement": "MFI", "setting": "[15]", "result": 237, "unit": "MFI"}, {"measurement": "MFI", "setting": "[16]", "result": 0, "unit": "MFI"}, {"measurement": "MFI", "setting": "[17]", "result": 0, "unit": "MFI"}, {"measurement": "Difference % (iBead against regular bead MFI)", "setting": "[18]", "result": -33, "unit": "%"}, {"measurement": "Difference % (iBead against regular bead MFI)", "setting": "[19]", "result": -12, "unit": "%"}, {"measurement": "Difference % (iBead against regular bead MFI)", "setting": "[20]", "result": -33, "unit": "%"}, {"measurement": "Difference % (iBead against regular bead MFI)", "setting": "[21]", "result": -53, "unit": "%"}, {"measurement": "Difference % (iBead against regular bead MFI)", "setting": "[22]", "result": 469, "unit": "%"}, {"measurement": "Difference % (iBead against regular bead MFI)", "setting": "[23]", "result": 81, "unit": "%"}, {"measurement": "Difference % (iBead against regular bead MFI)", "setting": "[24]", "result": 45, "unit": "%"}, {"measurement": "Difference % (iBead against regular bead MFI)", "setting": "[25]", "result": -2, "unit": "%"}, {"measurement": "Difference % (iBead against regular bead MFI)", "setting": "[26]", "result": 45, "unit": "%"}, {"measurement": "Difference % (iBead against regular bead MFI)", "setting": "[27]", "result": 2220, "unit": "%"}, {"measurement": "Difference % (iBead against regular bead MFI)", "setting": "[28]", "result": 85, "unit": "%"}, {"measurement": "Difference % (iBead against regular bead MFI)", "setting": "[29]", "result": 73, "unit": "%"}, {"measurement": "Difference % (iBead against regular bead MFI)", "setting": "[30]", "result": 0, "unit": "%"}, {"measurement": "Difference % (iBead against regular bead MFI)", "setting": "[31]", "result": 167, "unit": "%"}, {"measurement": "MFI", "setting": "[32]", "result": 740, "unit": "MFI"}, {"measurement": "MFI", "setting": "[33]", "result": 473, "unit": "MFI"}, {"measurement": "MFI", "setting": "[34]", "result": 461, "unit": "MFI"}, {"measurement": "MFI", "setting": "[35]", "result": 359, "unit": "MFI"}, {"measurement": "MFI", "setting": "[36]", "result": 182, "unit": "MFI"}, {"measurement": "MFI", "setting": "[37]", "result": 242, "unit": "MFI"}, {"measurement": "MFI", "setting": "[38]", "result": 413, "unit": "MFI"}, {"measurement": "MFI", "setting": "[39]", "result": 248, "unit": "MFI"}, {"measurement": "MFI", "setting": "[40]", "result": 352, "unit": "MFI"}, {"measurement": "MFI", "setting": "[41]", "result": 302, "unit": "MFI"}, {"measurement": "MFI", "setting": "[42]", "result": 655, "unit": "MFI"}, {"measurement": "MFI", "setting": "[43]", "result": 612, "unit": "MFI"}, {"measurement": "MFI", "setting": "[44]", "result": 409, "unit": "MFI"}, {"measurement": "MFI", "setting": "[45]", "result": 86, "unit": "MFI"}, {"measurement": "MFI", "setting": "[46]", "result": 0, "unit": "MFI"}, {"measurement": "MFI", "setting": "[47]", "result": 377, "unit": "MFI"}]}]}
